Source: patent US20090004214A1 (COMMISSARIAT A L ENERGIE ATOMIQUE, published 2009)
No end group written: not given here.

T1: HLA-DR13 molecule (DRB1*1301) (human)
T1 chain 1: not shown
T1 chain 2: not shown


Legend:
[1] = biological target: T1, HLA-DR13 molecule (DRB1*1301) (human); experiment: competitive ELISA, nonbiotinylated peptide vs its biotinylated tracer
[2] = biological target: T1, HLA-DR13 molecule (DRB1*1301) (human); experiment: competitive ELISA, tracer B1 21-36
[3] = biological target: T2, HLA-DP402 molecule (DPB1*0402) (human, UniProt P20036 29-222, limits assumed); experiment: competitive ELISA, tracer Oxy 271-287
T2 construct: HLA class II heterodimer; also called DP*0402

[4] = biological target: T3, HLA-DP401 molecule (DPB1*0401) (human, UniProt P20036 29-222, limits assumed); experiment: competitive ELISA, tracer Oxy 271-287
T3 construct: HLA class II heterodimer; also called DP*0401

[5] = biological target: T4, HLA-DR3 molecule (DRB1*0301) (human); experiment: competitive ELISA, tracer MT 2-16
T4 construct: HLA class II heterodimer

[6] = biological target: T5, HLA-DRB4 molecule (DRB4*0101) (human); experiment: competitive ELISA, tracer E2/E168
T5 construct: HLA class II heterodimer

[7] = biological target: T6, HLA-DR7 molecule (DRB1*0701) (human); experiment: competitive ELISA, tracer YKL
T6 construct: HLA class II heterodimer

[8] = biological target: T7, HLA-DR15 molecule (DRB1*1501) (human); experiment: competitive ELISA, tracer A3 152-166
T7 construct: HLA class II heterodimer

[9] = biological target: T8, HLA-DR11 molecule (DRB1*1101) (human); experiment: competitive ELISA, tracer HA 306-318
T8 construct: HLA class II heterodimer

[10] = biological target: T9, HLA-DR1 molecule (DRB1*0101) (human); experiment: competitive ELISA, tracer HA 306-318
T9 construct: HLA class II heterodimer

[11] = biological target: T10, HLA-DRB5 molecule (DRB5*0101) (human); experiment: competitive ELISA, tracer HA 306-318
T10 construct: HLA class II heterodimer

[12] = biological target: T11, HLA-DR4 molecule (DRB1*0401) (human); experiment: competitive ELISA, tracer HA 306-318
T11 construct: HLA class II heterodimer

[13] = biological target: T12, HLA-DRB3 molecule (DRB3*0101) (human); experiment: competitive ELISA, tracer LOL 191-210
T12 construct: HLA class II heterodimer

[14] = biological target: T13, HLA-DR13 molecule (DRB1*1301) (human); experiment: competitive ELISA, tracer B1 21-36
T13 construct: HLA class II heterodimer

Binder	IC50 [1]	IC50 [2]	IC50 [3]	IC50 [4]	IC50 [5]	IC50 [6]	IC50 [7]	IC50 [8]	IC50 [9]	IC50 [10]	IC50 [11]	IC50 [12]	IC50 [13]	IC50 [14]
TERVRLVTRHIYNREE (not fully specified) [B1 21-36 peptide (nonbiotinylated)]	0.8 µM	0.609 µM	–	–	–	–	–	–	–	–	–	–	–	–
AKKVRRAIEQLAAMD (synthetic 15-mer) [survivin peptide 128-142]	–	–	20 µM	13 µM	12 µM	1.8 µM	1.34 µM	0.284 µM	–	–	–	–	–	–
FCFKELEGWEPDDDP (synthetic 15-mer) [survivin peptide 59-73]	–	–	–	–	–	–	9 µM	8 µM	1.84 µM	3.76 µM	45 µM	58 µM	–	–
LSVKKQFEELTLGEF (synthetic 15-mer) [survivin peptide 87-101]	–	–	6.39 µM	3.67 µM	–	9.8 µM	0.705 µM	4.8 µM	2.06 µM	0.15 µM	6 µM	6.45 µM	6.8 µM	–
KQFEELTLGEFLKLD (synthetic 15-mer) [survivin peptide 91-105]	–	–	0.012 µM	0.011 µM	–	–	0.056 µM	3.16 µM	2.35 µM	0.012 µM	0.145 µM	1.59 µM	30 µM	–
KEFEETAKKVRRAIE (synthetic 15-mer) [survivin peptide 122-136]	–	–	–	–	5.81 µM	–	20 µM	1.2 µM	0.31 µM	5.56 µM	0.447 µM	–	–	0.995 µM
FEELTLGEFLKLDRE (synthetic 15-mer) [survivin peptide 93-107]	–	–	0.067 µM	0.02 µM	–	–	2.79 µM	0.612 µM	0.548 µM	0.128 µM	0.529 µM	5.5 µM	45 µM	7.8 µM
PDLAQCFFCFKELEG (synthetic 15-mer) [survivin peptide 52-66]	–	–	4.58 µM	–	11.8 µM	–	6.67 µM	2.25 µM	0.092 µM	4.1 µM	5.35 µM	22 µM	12.6 µM	23 µM
KKQFEELTLGEFLKL (synthetic 15-mer) [survivin peptide 90-104]	–	–	0.019 µM	0.048 µM	–	–	0.14 µM	7.5 µM	2.35 µM	0.04 µM	0.28 µM	0.748 µM	48 µM	–
MGAPTLPPAWQPFLK (synthetic 15-mer) [survivin peptide 1-15]	–	–	6.93 µM	9.2 µM	–	–	–	80 µM	0.063 µM	10.8 µM	8 µM	–	–	–
HRISTFKNWPFLEGC (synthetic 15-mer) [survivin peptide 17-31]	–	–	0.029 µM	0.04 µM	–	7.5 µM	0.018 µM	0.003 µM	0.247 µM	0.019 µM	0.302 µM	9.2 µM	–	0.735 µM
ISTFKNWPFLEGCAC (synthetic 15-mer) [survivin peptide 19-33]	–	–	–	0.032 µM	–	3.12 µM	0.748 µM	0.081 µM	0.147 µM	0.01 µM	3.78 µM	0.615 µM	–	9.5 µM
KNWPFLEGCACTPER (synthetic 15-mer) [survivin peptide 23-37]	–	–	3.7 µM	–	–	–	60 µM	–	37 µM	0.071 µM	3.42 µM	5.2 µM	–	–
GEFLKLDRERAKNKI (synthetic 15-mer) [survivin peptide 99-113]	–	–	–	40 µM	4.67 µM	22 µM	6.46 µM	1.2 µM	0.04 µM	0.048 µM	0.022 µM	2.13 µM	–	9.17 µM
PTLPPAWQPFLKDHR (synthetic 15-mer) [survivin peptide 4-18]	–	–	3.59 µM	9 µM	–	–	–	–	–	45 µM	5.48 µM	–	–	40 µM
PAWQPFLKDHRISTF (synthetic 15-mer) [survivin peptide 8-22]	–	–	10.5 µM	21 µM	16 µM	29 µM	9.39 µM	5.2 µM	–	6.57 µM	2.19 µM	46 µM	8.72 µM	2.31 µM
ERMAEAGFIHCPTEN (synthetic 15-mer) [survivin peptide 36-50]	–	–	3.17 µM	3.62 µM	–	49 µM	17 µM	–	5.59 µM	2.55 µM	3.79 µM	17 µM	–	–
DPIEEHKKHSSGCAF (synthetic 15-mer) [survivin peptide 72-86]	–	–	–	–	–	–	–	–	–	95 µM	6.2 µM	–	–	11 µM
LTLGEFLKLDRERAK (synthetic 15-mer) [survivin peptide 96-110]	–	–	0.62 µM	2.92 µM	5.48 µM	3.6 µM	5.64 µM	0.49 µM	0.007 µM	0.018 µM	0.103 µM	1.67 µM	–	0.302 µM
LKLDRERAKNKIAKE (synthetic 15-mer) [survivin peptide 102-116]	–	–	–	–	–	–	50 µM	–	8.94 µM	7.75 µM	0.018 µM	–	–	–
STFKNWPFLEGCACT (synthetic 15-mer) [survivin peptide 20-34]	–	–	–	–	–	5.5 µM	20 µM	–	–	–	–	5.2 µM	–	–
QCFFCFKELEGWEPD (synthetic 15-mer) [survivin peptide 56-70]	–	–	–	–	–	–	13 µM	3 µM	0.363 µM	1.6 µM	20 µM	–	12 µM	–
QPFLKDHRISTFKNW (synthetic 15-mer) [survivin peptide 11-25]	–	–	25 µM	33 µM	65 µM	75 µM	8 µM	0.022 µM	0.329 µM	6 µM	2.26 µM	45 µM	3.67 µM	2.41 µM
KELEGWEPDDDPIEE (synthetic 15-mer) [survivin peptide 62-76]	–	–	–	–	–	–	–	65 µM	–	–	–	–	29 µM	–
AGFIHCPTENEPDLA (synthetic 15-mer) [survivin peptide 41-55]	–	–	–	–	–	0.328 µM	3.73 µM	7 µM	1.15 µM	2.31 µM	3.38 µM	5 µM	10 µM	–
CAFLSVKKQFEELTL (synthetic 15-mer) [survivin peptide 84-98]	–	–	0.113 µM	0.167 µM	2.57 µM	1.33 µM	0.179 µM	0.574 µM	0.01 µM	2.83 µM	1.77 µM	19 µM	11.8 µM	0.845 µM
